Data as given in patent publication US20140087995A1 (published 2014).
Numbered stars: 1 amine (or outer) side, 2 acyl side, 3 side chain; on linkers, the order of the positions; unused ones are H or OH. Bridge positions count the residues as written; N and C are the ends. Side chains are listed from the residue outwards. Ends that are not written are not given here. * marks the point of attachment. C20 diacid = O=C(O)CCCCCCCCCCCCCCCCCCC(=O)*; γGlu = O=C(O)[C@H](CCC(=O)[*:2])N[*:1]; AEEA = NCCOCCOCC(=O)O

T1: rat calcitonin receptor (rat, UniProt P32214 25-516)
T1 construct: whole, on cells; Used as membranes prepared from the transfected cells; also called rCTR; rCT
T1 sequence (looked up): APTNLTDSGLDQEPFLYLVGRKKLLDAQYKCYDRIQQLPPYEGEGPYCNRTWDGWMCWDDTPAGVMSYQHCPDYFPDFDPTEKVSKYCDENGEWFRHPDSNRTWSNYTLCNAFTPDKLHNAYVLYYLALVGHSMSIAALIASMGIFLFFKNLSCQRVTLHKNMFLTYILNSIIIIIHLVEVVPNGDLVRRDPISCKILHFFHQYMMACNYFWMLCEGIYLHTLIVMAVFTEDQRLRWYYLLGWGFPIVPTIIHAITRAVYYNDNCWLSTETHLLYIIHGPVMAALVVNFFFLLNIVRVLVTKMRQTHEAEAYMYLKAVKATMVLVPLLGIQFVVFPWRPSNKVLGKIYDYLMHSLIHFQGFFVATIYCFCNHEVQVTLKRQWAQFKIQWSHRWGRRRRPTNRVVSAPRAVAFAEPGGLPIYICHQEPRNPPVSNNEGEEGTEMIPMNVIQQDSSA

T2: human calcitonin receptor (human, UniProt P30988 25-474)
T2 construct: whole, on cells; Used as membranes prepared from the transfected cells; also called hCTR; hCT
T2 sequence (looked up): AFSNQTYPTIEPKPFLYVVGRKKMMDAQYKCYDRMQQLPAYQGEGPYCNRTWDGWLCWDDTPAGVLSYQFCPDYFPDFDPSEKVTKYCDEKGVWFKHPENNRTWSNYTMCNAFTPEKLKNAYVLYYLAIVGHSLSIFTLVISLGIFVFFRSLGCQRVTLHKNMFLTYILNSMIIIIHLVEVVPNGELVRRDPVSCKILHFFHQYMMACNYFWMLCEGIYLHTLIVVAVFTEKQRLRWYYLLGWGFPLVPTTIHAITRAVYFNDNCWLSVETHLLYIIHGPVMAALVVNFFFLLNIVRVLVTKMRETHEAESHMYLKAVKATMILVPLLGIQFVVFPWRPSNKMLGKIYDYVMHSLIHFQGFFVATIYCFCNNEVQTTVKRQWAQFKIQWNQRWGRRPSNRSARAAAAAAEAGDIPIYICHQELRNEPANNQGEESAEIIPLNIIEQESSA


Key:
rat calcitonin receptor [1] = target: T1, rat calcitonin receptor; test: SPA competition with 125I-calcitonin, membranes with rat calcitonin receptor (Assay VIII)
[2] = target: T2, human calcitonin receptor; test: ratio of binding IC50 at human calcitonin receptor to IC50 at human amylin receptor (reference)
Method in brief: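 Membranes (35 ng/μL final) + SPA beads, 50 mM Hepes pH 7.4 buffer with 1 mM CaCl2, 5 mM MgCl₂, 0.1% OA, 0.02% Tween20; 120 min, 25° C, shaking; centrifuged, counted; IC₅₀ by one-site binding competition.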

rat calcitonin receptor [3] = target: T1, rat calcitonin receptor; test: ratio of binding IC50 at rat calcitonin receptor to IC50 at rat amylin receptor (reference)

Binder | IC50 (rat calcitonin receptor [1]) | Ratio hCT/hAmylin binding [2] | Ratio rCT/rAmylin binding (rat calcitonin receptor [3])
K([γGlu-γGlu-C20 diacid])CNTATCATQRLAEFLRHSSPNFGAIPSSTNVGHNTY-NH2 (disulfide 2-7; N-terminus assumed; SMILES CC[C@H](C)[C@H](NC(=O)[C@H](C)NC(=O)CNC(=O)[C@H](Cc1ccccc1)NC(=O)[C@H](CC(N)=O)NC(=O)[C@@H]1CCCN1C(=O)[C@H](CO)NC(=O)[C@H](CO)NC(=O)[C@H](Cc1c[nH]cn1)NC(=O)[C@H](CCCNC(=N)N)NC(=O)[C@H](CC(C)C)NC(=O)[C@H](Cc1ccccc1)NC(=O)[C@H](CCC(=O)O)NC(=O)[C@H](C)NC(=O)[C@H](CC(C)C)NC(=O)[C@H](CCCNC(=N)N)NC(=O)[C@H](CCC(N)=O)NC(=O)[C@@H](NC(=O)[C@H](C)NC(=O)[C@@H]1CSSC[C@H](NC(=O)[C@@H](N)CCCCNC(=O)CC[C@H](NC(=O)CC[C@H](NC(=O)CCCCCCCCCCCCCCCCCCC(=O)O)C(=O)O)C(=O)O)C(=O)N[C@@H](CC(N)=O)C(=O)N[C@@H]([C@@H](C)O)C(=O)N[C@@H](C)C(=O)N[C@@H]([C@@H](C)O)C(=O)N1)[C@@H](C)O)C(=O)N1CCC[C@H]1C(=O)N[C@@H](CO)C(=O)N[C@@H](CO)C(=O)N[C@H](C(=O)N[C@@H](CC(N)=O)C(=O)N[C@H](C(=O)NCC(=O)N[C@@H](Cc1c[nH]cn1)C(=O)N[C@@H](CC(N)=O)C(=O)N[C@H](C(=O)N[C@@H](Cc1ccc(O)cc1)C(N)=O)[C@@H](C)O)C(C)C)[C@@H](C)O, Analogue of human amylin; disulfide and C-terminal amide as told for h-amylin; also called compound 87) | 94.5 nM | 35.6 | 45.6
K([γGlu-C20 diacid])CNTATCATQRLAHFLRHSSPNFGAIPSSTNVGSNTY-NH2 (disulfide 2-7; N-terminus assumed; SMILES CC[C@H](C)[C@H](NC(=O)[C@H](C)NC(=O)CNC(=O)[C@H](Cc1ccccc1)NC(=O)[C@H](CC(N)=O)NC(=O)[C@@H]1CCCN1C(=O)[C@H](CO)NC(=O)[C@H](CO)NC(=O)[C@H](Cc1c[nH]cn1)NC(=O)[C@H](CCCNC(=N)N)NC(=O)[C@H](CC(C)C)NC(=O)[C@H](Cc1ccccc1)NC(=O)[C@H](Cc1c[nH]cn1)NC(=O)[C@H](C)NC(=O)[C@H](CC(C)C)NC(=O)[C@H](CCCNC(=N)N)NC(=O)[C@H](CCC(N)=O)NC(=O)[C@@H](NC(=O)[C@H](C)NC(=O)[C@@H]1CSSC[C@H](NC(=O)[C@@H](N)CCCCNC(=O)CC[C@H](NC(=O)CCCCCCCCCCCCCCCCCCC(=O)O)C(=O)O)C(=O)N[C@@H](CC(N)=O)C(=O)N[C@@H]([C@@H](C)O)C(=O)N[C@@H](C)C(=O)N[C@@H]([C@@H](C)O)C(=O)N1)[C@@H](C)O)C(=O)N1CCC[C@H]1C(=O)N[C@@H](CO)C(=O)N[C@@H](CO)C(=O)N[C@H](C(=O)N[C@@H](CC(N)=O)C(=O)N[C@H](C(=O)NCC(=O)N[C@@H](CO)C(=O)N[C@@H](CC(N)=O)C(=O)N[C@H](C(=O)N[C@@H](Cc1ccc(O)cc1)C(N)=O)[C@@H](C)O)C(C)C)[C@@H](C)O, Analogue of human amylin; disulfide and C-terminal amide as told for h-amylin; also called compound 70) [N^ε1-[(4S)-4-carboxy-4-(19-carboxynonadecanoylamino)butanoyl]-[His14,Arg17,Pro21,Pro27]-h-amylin] | 34.2 nM | 60.8 | 96.5
K([AEEA-C20 diacid])CNTATCATQRLAHFLRHSSPNFGAIPSSTNVGSNTY-NH2 (disulfide 2-7; N-terminus assumed; SMILES CC[C@H](C)[C@H](NC(=O)[C@H](C)NC(=O)CNC(=O)[C@H](Cc1ccccc1)NC(=O)[C@H](CC(N)=O)NC(=O)[C@@H]1CCCN1C(=O)[C@H](CO)NC(=O)[C@H](CO)NC(=O)[C@H](Cc1c[nH]cn1)NC(=O)[C@H](CCCNC(=N)N)NC(=O)[C@H](CC(C)C)NC(=O)[C@H](Cc1ccccc1)NC(=O)[C@H](Cc1c[nH]cn1)NC(=O)[C@H](C)NC(=O)[C@H](CC(C)C)NC(=O)[C@H](CCCNC(=N)N)NC(=O)[C@H](CCC(N)=O)NC(=O)[C@@H](NC(=O)[C@H](C)NC(=O)[C@@H]1CSSC[C@H](NC(=O)[C@@H](N)CCCCNC(=O)COCCOCCNC(=O)CCCCCCCCCCCCCCCCCCC(=O)O)C(=O)N[C@@H](CC(N)=O)C(=O)N[C@@H]([C@@H](C)O)C(=O)N[C@@H](C)C(=O)N[C@@H]([C@@H](C)O)C(=O)N1)[C@@H](C)O)C(=O)N1CCC[C@H]1C(=O)N[C@@H](CO)C(=O)N[C@@H](CO)C(=O)N[C@H](C(=O)N[C@@H](CC(N)=O)C(=O)N[C@H](C(=O)NCC(=O)N[C@@H](CO)C(=O)N[C@@H](CC(N)=O)C(=O)N[C@H](C(=O)N[C@@H](Cc1ccc(O)cc1)C(N)=O)[C@@H](C)O)C(C)C)[C@@H](C)O, Analogue of human amylin; disulfide and C-terminal amide as told for h-amylin; also called compound 90) [N^ε1-[2-[2-[2-(19-carboxynonadecanoylamino)ethoxy]ethoxy]acetyl]-[His14,Arg17,Pro21,Pro27]-h-amylin] | 18.2 nM | 42.2 | 74.1
K([γGlu-γGlu-C20 diacid])CNTATCATQRLAHFLRHSSPNFGAIPSSTNVGSNTY-NH2 (disulfide 2-7; N-terminus assumed; SMILES CC[C@H](C)[C@H](NC(=O)[C@H](C)NC(=O)CNC(=O)[C@H](Cc1ccccc1)NC(=O)[C@H](CC(N)=O)NC(=O)[C@@H]1CCCN1C(=O)[C@H](CO)NC(=O)[C@H](CO)NC(=O)[C@H](Cc1c[nH]cn1)NC(=O)[C@H](CCCNC(=N)N)NC(=O)[C@H](CC(C)C)NC(=O)[C@H](Cc1ccccc1)NC(=O)[C@H](Cc1c[nH]cn1)NC(=O)[C@H](C)NC(=O)[C@H](CC(C)C)NC(=O)[C@H](CCCNC(=N)N)NC(=O)[C@H](CCC(N)=O)NC(=O)[C@@H](NC(=O)[C@H](C)NC(=O)[C@@H]1CSSC[C@H](NC(=O)[C@@H](N)CCCCNC(=O)CC[C@H](NC(=O)CC[C@H](NC(=O)CCCCCCCCCCCCCCCCCCC(=O)O)C(=O)O)C(=O)O)C(=O)N[C@@H](CC(N)=O)C(=O)N[C@@H]([C@@H](C)O)C(=O)N[C@@H](C)C(=O)N[C@@H]([C@@H](C)O)C(=O)N1)[C@@H](C)O)C(=O)N1CCC[C@H]1C(=O)N[C@@H](CO)C(=O)N[C@@H](CO)C(=O)N[C@H](C(=O)N[C@@H](CC(N)=O)C(=O)N[C@H](C(=O)NCC(=O)N[C@@H](CO)C(=O)N[C@@H](CC(N)=O)C(=O)N[C@H](C(=O)N[C@@H](Cc1ccc(O)cc1)C(N)=O)[C@@H](C)O)C(C)C)[C@@H](C)O, Analogue of human amylin; disulfide and C-terminal amide as told for h-amylin; also called compound 92) | 104 nM | 145 | 156
